Target: pVP28-Agα1p displayed on the cell surface of P. pastoris (white spot syndrome virus (WSSV))
Assay: yeast agglutination; two yeast clones mixed in PBS with 1% BSA at initial OD600 = 0.7, left to stand 1 h; percent agglutination from the fall in OD600; cells induced with methanol 24-96 h

mPmRab7-Agα1p displayed on the cell surface of P. pastoris (domain or fragment)
percent agglutination (48 h induction): 38%
percent agglutination (longer induction times): 20%
